The source of these data is paper PMC7744550, “Structurally distinct telomere-binding proteins in Ustilago maydis execute non-overlapping functions in telomere replication, recombination, and protection”.

Usually Kd stands for the constant that tells how readily two partners part at equilibrium.

Data set [1] deals with T1, Tay1-FG (Ustilago maydis) (UniProt A0A0D1CTG7).
T1 sequence: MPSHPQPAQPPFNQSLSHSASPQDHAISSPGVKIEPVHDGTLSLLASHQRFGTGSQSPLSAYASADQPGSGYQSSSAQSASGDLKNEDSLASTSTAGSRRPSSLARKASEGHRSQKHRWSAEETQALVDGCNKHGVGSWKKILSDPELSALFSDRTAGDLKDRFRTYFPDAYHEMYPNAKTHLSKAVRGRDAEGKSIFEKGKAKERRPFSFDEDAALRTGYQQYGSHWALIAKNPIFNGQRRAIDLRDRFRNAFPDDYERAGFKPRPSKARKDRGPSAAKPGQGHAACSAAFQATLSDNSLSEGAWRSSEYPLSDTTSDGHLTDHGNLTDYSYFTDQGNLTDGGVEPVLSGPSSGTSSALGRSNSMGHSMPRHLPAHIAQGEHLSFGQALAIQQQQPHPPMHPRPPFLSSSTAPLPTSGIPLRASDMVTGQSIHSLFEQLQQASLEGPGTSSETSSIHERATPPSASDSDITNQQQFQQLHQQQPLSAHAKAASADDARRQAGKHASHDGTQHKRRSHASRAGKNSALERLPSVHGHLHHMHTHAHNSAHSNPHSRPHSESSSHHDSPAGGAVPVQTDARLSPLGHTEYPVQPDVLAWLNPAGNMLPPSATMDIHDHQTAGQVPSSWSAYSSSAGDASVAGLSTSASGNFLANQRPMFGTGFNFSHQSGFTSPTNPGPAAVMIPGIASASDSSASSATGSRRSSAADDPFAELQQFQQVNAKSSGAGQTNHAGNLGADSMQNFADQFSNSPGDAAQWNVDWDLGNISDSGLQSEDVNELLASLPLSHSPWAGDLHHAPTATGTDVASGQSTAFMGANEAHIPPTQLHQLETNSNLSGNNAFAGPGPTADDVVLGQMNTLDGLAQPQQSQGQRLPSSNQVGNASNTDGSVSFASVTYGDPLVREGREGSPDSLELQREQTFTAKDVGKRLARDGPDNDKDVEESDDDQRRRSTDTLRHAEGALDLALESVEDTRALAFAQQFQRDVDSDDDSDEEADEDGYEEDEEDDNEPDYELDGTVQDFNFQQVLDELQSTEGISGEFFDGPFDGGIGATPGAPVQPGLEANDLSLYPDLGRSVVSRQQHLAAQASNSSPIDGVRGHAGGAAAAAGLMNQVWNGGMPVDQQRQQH
Description: EMSA. The note with it: 25 mM HEPES-KOH pH 7.5, 5% glycerol, 3 mM MgCl2, 0.1 mM EDTA, 1 mM DTT, 0.5 µg/µl BSA, 1-10 nM 32P probe, 22 °C 15 min; 6% native PAGE in 0.2x TBE. (In EMSA bound probe runs differently from free probe, usually more slowly.)

Data set [2] has as its target T2, Tay1N274-FG (Ustilago maydis) (UniProt A0A0D1CTG7).
T2 sequence: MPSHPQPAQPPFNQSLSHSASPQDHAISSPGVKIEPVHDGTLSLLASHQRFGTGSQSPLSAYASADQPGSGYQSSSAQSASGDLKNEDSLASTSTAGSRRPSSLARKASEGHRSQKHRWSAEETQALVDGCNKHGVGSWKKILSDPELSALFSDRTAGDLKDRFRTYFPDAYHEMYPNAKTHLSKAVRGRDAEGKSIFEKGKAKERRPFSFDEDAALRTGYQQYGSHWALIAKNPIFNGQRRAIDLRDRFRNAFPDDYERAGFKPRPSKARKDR
Description: EMSA. The conditions noted are these: 25 mM HEPES-KOH pH 7.5, 5% glycerol, 3 mM MgCl2, 0.1 mM EDTA, 1 mM DTT, 0.5 µg/µl BSA, 1-10 nM 32P probe, 22 °C 15 min; 6% native PAGE in 0.2x TBE.

The target of data set [3] is T3, Trf2∆N-FG3 (Ustilago maydis) (UniProt A0A0D1E1Z3).
T3 sequence: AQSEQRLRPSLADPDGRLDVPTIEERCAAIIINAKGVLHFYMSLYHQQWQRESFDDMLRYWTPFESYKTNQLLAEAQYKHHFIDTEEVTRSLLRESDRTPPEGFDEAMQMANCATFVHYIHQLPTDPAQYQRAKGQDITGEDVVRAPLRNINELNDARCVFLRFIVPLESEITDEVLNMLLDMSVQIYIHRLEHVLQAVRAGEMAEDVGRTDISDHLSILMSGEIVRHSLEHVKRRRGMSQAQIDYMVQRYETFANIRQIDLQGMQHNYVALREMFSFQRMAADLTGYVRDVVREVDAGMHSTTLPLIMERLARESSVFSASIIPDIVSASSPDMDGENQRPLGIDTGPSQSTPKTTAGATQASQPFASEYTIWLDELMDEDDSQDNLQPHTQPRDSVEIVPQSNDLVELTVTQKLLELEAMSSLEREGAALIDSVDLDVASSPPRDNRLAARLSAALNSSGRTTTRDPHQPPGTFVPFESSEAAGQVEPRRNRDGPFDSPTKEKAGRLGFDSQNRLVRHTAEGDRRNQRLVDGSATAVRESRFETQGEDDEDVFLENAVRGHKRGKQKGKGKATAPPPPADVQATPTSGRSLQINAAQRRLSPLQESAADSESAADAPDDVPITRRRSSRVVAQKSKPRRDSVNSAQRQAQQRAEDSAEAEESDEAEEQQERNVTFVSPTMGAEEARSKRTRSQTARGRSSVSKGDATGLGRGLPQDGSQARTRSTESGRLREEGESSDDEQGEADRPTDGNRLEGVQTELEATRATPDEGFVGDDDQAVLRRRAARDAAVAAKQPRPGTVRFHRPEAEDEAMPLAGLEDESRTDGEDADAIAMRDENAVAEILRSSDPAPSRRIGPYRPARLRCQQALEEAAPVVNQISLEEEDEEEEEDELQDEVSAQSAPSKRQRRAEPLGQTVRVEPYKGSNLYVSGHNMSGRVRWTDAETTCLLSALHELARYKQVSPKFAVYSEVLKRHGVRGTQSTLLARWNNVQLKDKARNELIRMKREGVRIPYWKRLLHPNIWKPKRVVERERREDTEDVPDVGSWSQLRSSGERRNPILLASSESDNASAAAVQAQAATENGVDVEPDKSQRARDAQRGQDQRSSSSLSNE
Description: EMSA. The conditions noted are these: 25 mM HEPES-KOH pH 7.5, 5% glycerol, 3 mM MgCl2, 0.1 mM EDTA, 1 mM DTT, 0.5 µg/µl BSA, 1-10 nM 32P probe, 22 °C 15 min; 6% native PAGE in 0.2x TBE.

Data set [4] addresses Blm-FG (Ustilago maydis).
Data set [5] addresses Trf2∆N-FG3 (Ustilago maydis, UniProt A0A0D1E1Z3 416-1528). Description: EMSA; 25 mM HEPES-KOH pH 7.5, 5% glycerol, 3 mM MgCl2, 0.1 mM EDTA, 1 mM DTT, 0.5 µg/µl BSA, 1-10 nM 32P probe, 22 °C 15 min; 6% native PAGE in 0.2x TBE. The note with it: protein: recombinant; tags: C-terminal FG3 (His-SUMO cleaved by ULP1).
In data set [6] the target is Tay1-FG (Ustilago maydis, UniProt A0A0D1CTG7 1-1127). Briefly: competition; unlabeled competitor; 25 mM HEPES-KOH pH 7.5, 5% glycerol, 3 mM MgCl2, 0.1 mM EDTA, 1 mM DTT, 0.5 µg/µl BSA, 1-10 nM 32P probe, 22 °C 15 min; 6% native PAGE in 0.2x TBE. The note with it: protein: recombinant; tags: C-terminal FLAG (His-SUMO cleaved by ULP1); blunt.

“TTAGGGTTAGGGTTAGGGTTAGGG (double strand) [TTAGGG4 ds]”: the dissociation constant Kd in data set [1] amounted to 27 nM; in data set [2], 130 nM; in data set [3], 20 nM.

In data set [4], Tay1-FG (natural protein) registered a helicase activity of Blm (12.5 nM) on a non-telomeric DNA substrate with Tay1 at 0, 10, 30 and 90 nM of 2.5 fold.

For TTAGGGTTAGGGTTAGGGTTAGGG (ssDNA) [TTAGGG4 G-strand], in data set [5], the binding result was “no binding”.

B1: CgTEL (dsDNA)
DNA 1: TGGGGTCTGGGTGCTG
DNA 2: CAGCACCCAGACCCCA
In the case of B1, the binding result in data set [6] is given as “no binding”.
